Kd and IC50 data for three sequences are collected here from patent publication US20150031755.

The target in data set [1] is T1, human alpha-CGRP (L-peptide) (Homo sapiens) (UniProt P06881).
T1 sequence: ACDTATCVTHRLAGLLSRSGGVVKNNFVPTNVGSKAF
Kind of data set: SPR. Particulars: L-RNA; 37 C.

For data set [2], the system named is T2, rat amylin (L-peptide) (Rattus norvegicus).
T2 sequence: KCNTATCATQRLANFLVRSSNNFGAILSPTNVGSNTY
Kind of data set: cell_activity. To be noted: L-RNA, L-dC at 41, 5'-40 kDa PEG; cAMP inhibition, MCF-7 cells; p375 prints human amylin for this value but p377 indicates rat amylin.

“CCGUGCUGUCGGAGACUACUCGUCGAGUAGAAAUAGGUCCCCUCCCACGG [226-F2-001 (L)]” displayed a Kd in data set [1] of 2.62 nM.

In the case of “CGUGCUGUCGGAGACUACUCGUCGAGUAGAAAUAGGUCCCCUCCCACG [212-G1-001 (L)]”, in data set [1], the dissociation constant (Kd) turned out to be 5.12 nM. Regarding “CCGUGCUGUCGGAGACUACUCGUCGAGUAGAAAUAGGUCCCCUCCCACGG [NOX-L41 (226-F2-001-D41-5'-40kDa-PEG)]”, the half-inhibitory concentration (IC50) in data set [2] worked out at 283 nM.
